Results as given in US20250361274A1, “PEPTIDE AND PEPTIDE-CONTAINING AGENT” (PEPTIDREAM INC., priority 2022, published 2025).
Bridge positions count the residues as written; N and C are the ends. Square brackets hold non-standard residues; d marks the D form. Ends that are not written are not given here. 3Pal(6-Ph) = N[C@@H](Cc1ccc(-c2ccccc2)nc1)C(=O)O; Phe(4-COOH) = N[C@@H](Cc1ccc(C(=O)O)cc1)C(=O)O; NMePhe(4-Cl) = CN[C@@H](Cc1ccc(Cl)cc1)C(=O)O; NMePhe(4-Me) = CN[C@@H](Cc1ccc(C)cc1)C(=O)O; Bip = N[C@@H](Cc1ccc(-c2ccccc2)cc1)C(=O)O; Abu(4,4,4-F3) = N[C@@H](CC(F)(F)F)C(=O)O; Phe(4-F) = N[C@@H](Cc1ccc(F)cc1)C(=O)O; NMeF = CN[C@@H](Cc1ccccc1)C(=O)O; 4Pal = N[C@@H](Cc1ccncc1)C(=O)O; Aad = N[C@@H](CCCC(=O)O)C(=O)O; Cha = N[C@@H](CC1CCCCC1)C(=O)O; Abu = CC[C@H](N)C(=O)O; βAla = NCCC(=O)O

Tests used:
BMP4 = molecular target: T1, BMP4 (Homo sapiens, UniProt P12644); test: BMP4 signal transduction inhibitory activity: SMAD1 phosphorylation by BMP4 stimulus, AlphaLISA SureFire, A549 cells; type: cell-based
T1 sequence (P12644 293-408): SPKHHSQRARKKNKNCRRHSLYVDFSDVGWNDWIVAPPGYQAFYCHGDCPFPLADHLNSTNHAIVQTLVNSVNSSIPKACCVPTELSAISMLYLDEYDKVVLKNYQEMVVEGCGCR

BMP7 = molecular target: T2, BMP7 (Homo sapiens, UniProt P18075); test: BMP7 signal transduction inhibitory activity: SMAD1 phosphorylation by BMP7 stimulus, A549 cells; type: cell-based
T2 sequence (P18075 293-431): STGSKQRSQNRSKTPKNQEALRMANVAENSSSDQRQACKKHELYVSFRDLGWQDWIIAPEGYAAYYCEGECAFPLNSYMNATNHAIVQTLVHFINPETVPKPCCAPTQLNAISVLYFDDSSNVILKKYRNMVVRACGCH
Summary of the method: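 Inhibition was measured as loss of BMP7-induced SMAD1 phosphorylation, using 10 nM BMP7 on A549 cells. Most peptides were given as three-concentration sets, such as 1/10/100, 10/100/1,000, 100/300/1,000 or 10/30/90 nM. Others were given as eight 1/3-ratio dilutions from 100 or 1,000 nM, alongside Noggin as control.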

[1] = BMP4 0.2 nM stimulus, peptide conc. in assay 0.2, 2, 20 nM
[2] = BMP7 10 nM stimulus, peptide conc. in assay 1, 10, 100 nM
[3] = SMAD1 phosphorylation, BMP4 0.2 nM, peptide conc. in assay 0.2, 2, 20 nM
[4] = SMAD1 phosphorylation, BMP7 10 nM, peptide conc. in assay 1, 10, 100 nM

95 ({CH2CO}-ERVYVDR[Bip]SYP[Bip]Y[Phe(4-COOH)][Phe(4-COOH)]SC[βAla][dE]-OH; thioether N-17; not fully specified) [compound 95]
aLISA BMP4 (BMP4; inhibition of SMAD1 phosphorylation by BMP4 stimulus, A549 cells, peptides of Synthesis 2, classes A-C, ND): A (showed an inhibitory activity of 50% or more in a zone to which the peptide was added to in an amount of 0.2 nM)
aLISA BMP7 (BMP7; inhibition of SMAD1 phosphorylation by BMP7 stimulus, A549 cells, peptides of Synthesis 2, classes A-D, ND): C (showed less than 50% of inhibitory activity in 10 nM-addition zone and showed 50% or more of inhibitory activity in 100 nM-addition zone)

421 ([Phe(4-F)]G[NMeF]G[3Pal(6-Ph)]GDE[Cha][Aad][NMePhe(4-Me)]L[Abu]C[βAla][dE]; also: cyclic peptide, ring closure not given here) [compound 421]
aLISA BMP4 (0.2 nM) % inh (BMP4; [1]): ND (the inhibitory activity was less than 30% at the maximum concentration evaluated)
aLISA BMP7 (10 nM) % inh (BMP7; [2]): D (showed less than 30% of inhibitory activity in 10 nM-addition zone and showed 30% or more of inhibitory activity in 100 nM-addition zone)

368 (FG[NMeF]G[Bip]GDE[Cha]Q[NMeF]L[Phe(4-COOH)]CG-NH2; not fully specified (N-terminus, bridges)) [compound 368]
aLISA BMP4 (0.2 nM) % inh (BMP4; [3]): ND (the inhibitory activity was less than 30% at the maximum concentration evaluated)
aLISA BMP7 (10 nM) % inh (BMP7; [4]): C (showed less than 30% of inhibitory activity in a zone to which the peptide was added in an amount of 1 nM and showed 30% or more of inhibitory activity in 10 nM-addition zone)

247 (ERV[Phe(4-F)]VDR[3Pal(6-Ph)]SYV[Bip]Y[Phe(4-COOH)][Phe(4-COOH)]SCG-NH2) [compound 247]
aLIZA BMP4 (0.2 nM) % Inh (BMP4; SMAD1 phosphorylation by BMP4 stimulus, peptide conc. in assay 0.02, 0.2, 2 nM, class symbols): C (showed less than 30% of inhibitory activity in 0.2 nM-addition zone and showed 30% or more of inhibitory activity in 2 nM-addition zone)
aLIZA BMP7 (10 nM) % Inh (BMP7; SMAD1 phosphorylation by BMP7 stimulus, peptide conc. in assay 10, 100, 1000 nM, class symbols): E (showed less than 30% of inhibitory activity in 100 nM-addition zone and showed 30% or more of inhibitory activity in 1,000 nM-addition zone)

271 (ERV[Phe(4-COOH)][Abu(4,4,4-F3)]DR[3Pal(6-Ph)]SYV[Bip][4Pal][Phe(4-COOH)][Phe(4-COOH)]SCG-NH2) [compound 271]
aLIZA BMP4 (0.2 nM) % inh (BMP4; BMP4 0.2 nM stimulus, peptide conc. in assay 0.02, 0.2, 2 nM, class symbols): C (showed less than 30% of inhibitory activity in 0.2 nM-addition zone and showed 30% or more of inhibitory activity in 2 nM-addition zone)
aLIZA BMP7 (10 nM) % inh (BMP7; BMP7 10 nM stimulus, peptide conc. in assay 10, 100, 1000 nM, class symbols): ND (the inhibitory activity was less than 30% at the maximum concentration evaluated)

337 (FG[NMeF]G[Bip]GDD[Cha][Aad][NMeF]LHCG-NH2; not fully specified (N-terminus, bridges)) [compound 337]
aLISA BMP4 (0.2 nM) % inh (BMP4; [3]): ND (the inhibitory activity was less than 30% at the maximum concentration evaluated)
aLISA BMP7 (10 nM) % inh (BMP7; [4]): D (showed less than 30% of inhibitory activity in 10 nM-addition zone and showed 30% or more of inhibitory activity in 100 nM-addition zone)

402 (FG[NMeF]G[Bip]GDE[Cha][Aad][NMeF]L[Abu]CG-NH2; not fully specified) [compound 402]
aLISA BMP4 (0.2 nM) % inh (BMP4; [1]): ND (the inhibitory activity was less than 30% at the maximum concentration evaluated)
aLISA BMP7 (10 nM) % inh (BMP7; [2]): C (showed less than 30% of inhibitory activity in a zone to which the peptide was added in an amount of 1 nM and showed 30% or more of inhibitory activity in 10 nM-addition zone)

389 (FG[NMeF]G[Bip]GDD[Cha]A[NMePhe(4-Cl)]LHCG-NH2; not fully specified) [compound 389]
aLISA BMP4 (0.2 nM) % inh (BMP4; BMP4 0.2 nM stimulus, peptide conc. in assay 2, 20, 200 nM): B (showed less than 30% of inhibitory activity in 20 nM-addition zone and showed 30% or more of inhibitory activity in 200 nM-addition zone)
aLISA BMP7 (10 nM) % inh (BMP7; BMP7 10 nM stimulus, peptide conc. in assay 10, 30, 90 nM): E (showed 30% or more of inhibitory activity in 10 nM-addition zone)
